Data on one molecule can be found in article PMC3661714 (Circulation, 2013).

Starred links: 1 amine or outer side, 2 acyl side, 3 side chain; linkers in the order of their positions; H or OH if unused. Residues, ends and D or L forms follow the SMILES beside them. Groups on a side chain read outwards from the residue. *: point of attachment. X1 = FCCOC1CCCC2C(=CNN=C2c2ccc(CN*)cc2)CC1; Glutaryl = O=C(CCCC(=O)[*:2])[*:1]

What is called tissue uptake is the percentage of the injected dose found per gram of tissue.

For series [1] the following is noted: B6 mice, injected i.v., n = 5, R^2 = 0.95, mean±SEM.
The target in series [2] is T1, plasma transglutaminase factor XIII (FXIII) (Mus musculus, UniProt Q8BH61).
T1 sequence (Q8BH61 1-732): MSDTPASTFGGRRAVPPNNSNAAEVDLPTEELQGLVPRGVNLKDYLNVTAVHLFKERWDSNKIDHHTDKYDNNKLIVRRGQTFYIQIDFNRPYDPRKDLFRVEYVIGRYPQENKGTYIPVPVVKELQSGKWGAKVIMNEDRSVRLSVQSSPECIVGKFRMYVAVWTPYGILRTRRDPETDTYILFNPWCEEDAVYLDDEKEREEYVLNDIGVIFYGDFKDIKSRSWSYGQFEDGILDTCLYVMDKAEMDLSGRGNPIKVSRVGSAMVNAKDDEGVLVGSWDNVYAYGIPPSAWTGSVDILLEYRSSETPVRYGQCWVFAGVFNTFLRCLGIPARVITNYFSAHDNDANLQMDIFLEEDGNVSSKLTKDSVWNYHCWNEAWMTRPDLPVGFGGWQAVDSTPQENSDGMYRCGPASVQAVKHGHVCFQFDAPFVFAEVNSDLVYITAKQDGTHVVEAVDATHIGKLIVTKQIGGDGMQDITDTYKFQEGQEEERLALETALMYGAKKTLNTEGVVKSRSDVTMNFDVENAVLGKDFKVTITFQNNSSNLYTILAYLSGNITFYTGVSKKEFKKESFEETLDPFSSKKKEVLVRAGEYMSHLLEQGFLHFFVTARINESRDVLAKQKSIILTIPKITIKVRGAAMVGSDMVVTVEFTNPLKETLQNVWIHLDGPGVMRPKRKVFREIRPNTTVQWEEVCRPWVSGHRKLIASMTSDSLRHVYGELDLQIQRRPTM
The series is described as follows: Scintillation counting of 18F-FXIII signal in hearts with or without MI. Type of series: in vivo. As to conditions: p<0.05.

A further series is described as follows: in vivo. As to conditions: B6, mouse, iv, SEM.

As to `CC(=O)NCC(=O)N[C@@H](CC(N)=O)C(=O)N[C@@H](CCC(N)=O)C(=O)N[C@@H](CCC(=O)O)C(=O)N[C@@H](CCC(N)=O)C(=O)N[C@H](C(=O)N[C@@H](CO)C(=O)N1CCC[C@H]1C(=O)N[C@@H](CC(C)C)C(=O)N[C@H](C(=O)N[C@@H](CC(C)C)C(=O)N[C@@H](CC(C)C)C(=O)N[C@@H](CCCCNC(=O)CCCC(=O)NCc1ccc(C2=NNC=C3CCC(OCCF)CCCC32)cc1)C(=O)N[C@@H](Cc1c[nH]c2ccccc12)C(=O)O)[C@@H](C)O)C(C)C` (stereo partly drawn) [18F-FXIII] (Ac-GNQEQVSPLTLLK([Glutaryl-X1])W-OH; N-terminus and C-terminus assumed), the blood half-life in series [1] turned out to be 13.2 ± 0.94 min. Further, in series [2] (day 4 after MI, comparable to non-infarcted wild-type B6 and FXIII−/− mice), the “Signal intensity in hearts of FXIII−/− mice with MI (specificity)” value is “significantly lower”. Moreover, the “18F-FXIII signal in the heart, B6 mice with MI compared to control mice” value in series [2] (day 4 after coronary ligation, n = 4-5 per group) is “significantly higher”. Besides, the tissue uptake at 1.25 h stood at 0.49 ± 0.03 %ID/g in “in vivo” (blood); 0.31 ± 0.03 %ID/g in “in vivo” (bone); 0.17 ± 0.01 %ID/g in the series “in vivo” (fat); 0.23 ± 0.03 %ID/g in the series “in vivo” (heart); 0.25 ± 0.04 %ID/g in “in vivo” (intestines); 1.26 ± 0.06 %ID/g in “in vivo” (kidney). The tissue uptake at 1.25 h in the series “in vivo” (liver) stood at 2.83 ± 0.22 %ID/g; in the series “in vivo” (lymph node) it was 0.6 ± 0.1 %ID/g; in the series “in vivo” (muscle), 0.15 ± 0.01 %ID/g; in “in vivo” (skin), 0.31 ± 0.05 %ID/g; in “in vivo” (spleen), 0.49 ± 0.05 %ID/g; in the series “in vivo” (tail), 0.41 ± 0.03 %ID/g.
